# Reference: paper PMC7382501 (Nature Communications, 2020)
# B1: FasRΔ33, truncated FasR lacking the first 33 amino acids (domain or fragment)
# chain: RLPRDERRGQLLVVASDVFVDRGYHAAGMDEIADRAGVSKPVLYQHFSSKLELYLAVLHRHVENLVSGVHQALSTTTDNRQRLHVAVQAFFDFIEHDSQGYRLIFENDFVTEPEVAAQVRVATESCIDAVFALISADSGLDPHRARMIAVGLVGMSVDCARYWLDADKPISKSDAVEGTVQFAWGGLSHVPLTRS
# Target: the molecule itself
# Assay: crystal structure
protein,measurement,value
B1,stoichiometry N,2
